Source: patent US20210033615A1 (DEUTSCHES KREBSFORSCHUNGSZENTRUM STIFTUNG DOES OFFENTLICHEN …, published 2021)

Columns and labels:
[1] = biological target: T1, 6-phosphofructo-2-kinase/fructose-2,6-biphosphatase 4 (PFKFB4) (human, UniProt Q16877 1-469); experiment: NanoBiT competition in HEK293 cells
T1 construct: It was expressed inside cells (GSCs, HEK293) or in yeast two-hybrid; any tags in the coIP and Y2H are not described; also called untagged PFKFB4

[2] = biological target: T2, PFKFB4 tagged at the C-terminal with the Large BiT (human, UniProt Q16877 1-469); experiment: NanoBiT luminescence complementation in HEK293 cells; counted positive if the signal is at least 10-fold that of the negative control
T2 construct: Expressed in HEK293 cells for the NanoBiT assay; also called C-ter[LgBiT]PFKFB4; tagged PFKFB4; not shown: Large BiT (LgBiT) tag and any linker from the pLVX1.1-C[TK/LgBiT]; NanoBiT vector
Text: The NanoBiT® assay from Promega is widely used to investigate protein-protein interactions. The NanoBiT Assay is described in detail in Dixon et al., (2016) “NanoLuc Complementation Reporter Optimized for Accurate Measurement of Protein Interactions in Cells” (ACS Chem. Biol., 11, 400-408; which is incorporated herein by reference in its entirety). The inventors adapted this method to develop a cellular screening assay in order to investigate the interaction of PFKFB4 with FBXO28. In that respect, both genes were cloned into pLVX vectors containing the four NanoBiT® versions (pLVX1.1-N[TK/LgBiT], pLVX2.1-N[TK/SmBiT], pLVX1.1-C[TK/LgBiT] and pLVX2.1-C[TK/SmBiT]), allowing the small and large BiT tags to be at the N- or C-terminal of both proteins of interest. As negative control, a vector containing a HaloTag protein cloned to the small BiT was used in combination with the large BiT cloned to either FBXO28 or PFKFB4.
All vectors were transfected in HEK293 cells and the combinations were tested as depicted in FIG. 7A. The luminescent signal was detected with the Nano-Glo® Luciferase Assay System from Promega. The interaction was considered positive if the signal was at least 10-fold of the respective negative control. […]

T1 sequence (Q16877 whole entry): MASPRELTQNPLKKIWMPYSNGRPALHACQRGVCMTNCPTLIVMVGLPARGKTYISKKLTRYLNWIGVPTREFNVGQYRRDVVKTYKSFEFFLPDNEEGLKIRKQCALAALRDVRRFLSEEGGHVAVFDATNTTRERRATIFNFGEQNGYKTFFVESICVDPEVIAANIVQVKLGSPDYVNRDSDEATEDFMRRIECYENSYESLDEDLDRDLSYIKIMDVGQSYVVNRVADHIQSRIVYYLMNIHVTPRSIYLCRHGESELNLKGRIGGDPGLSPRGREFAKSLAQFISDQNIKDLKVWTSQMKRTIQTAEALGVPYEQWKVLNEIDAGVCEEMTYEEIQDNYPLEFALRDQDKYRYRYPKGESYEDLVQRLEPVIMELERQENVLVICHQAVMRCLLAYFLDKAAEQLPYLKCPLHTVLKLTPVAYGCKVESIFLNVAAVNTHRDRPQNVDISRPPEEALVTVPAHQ
T2 sequence (Q16877 whole entry): as above

binding result [1]: binds
binding result [2]: binds
B1: FBXO28 tagged at the N-terminal with the small BiT (other)
chain: MAAAAEERMAEEGGGGQGDGGSSLASGSTQRQPPPPAPQHPQPGSQALPAPALAPDQLPQNNTLVALPIVAIENILSFMSYDEISQLRLVCKRMDLVCQRMLNQGFLKVERYHNLCQKQVKAQLPRRESERRNHSLARHADILAAVETRLSLLNMTFMKYVDSNLCCFIPGKVIDEIYRVLRYVNSTRAPQRAHEVLQELRDISSMAMEYFDEKIVPILKRKLPGSDVSGRLMGSPPVPGPSAALTTMQLFSKQNPSRQEVTKLQQQVKTNGAGVTVLRREISELRTKVQEQQKQLQDQDQKLLEQTQIIGEQNARLAELERKLREVMESAVGNSSGSGQNEESPRKRKKATEAIDSLRKSKRLRNRK
notes: Expressed in HEK293 cells for the NanoBiT assay; also called N-ter[SmBiT]FBXO28; tagged FBXO28; not shown: Small BiT (SmBiT) tag and any linker from the pLVX2.1-N[TK/SmBiT]; NanoBiT vector
